Test results taken from paper PMC10973816.

B1: mGluR6 (metabotropic glutamate receptor 6): N445Q (protein)
parent chain: MGRLRVLLLWLAWWLSQAGIAHGAGSVRLAGGLTLGGLFPVHARGAAGRACGTLKKEQGVHRLEAMLYALDRINADPELLPGVRLGARLLDTCSRDTYALEQALSFVQALIRGRGDGEEASVRCPGGVPPLRAAPPERVVAVVGASASSVSIMVANVLRLFAIPQISYASTAPELSDSTRYDFFSRVVPPDSYQAQAMVDIVRALGWNYVSTLASEGNYGESGVEAFVQISREAGGVCIAQSIKIPREPKPGEFHKVIRRLMETPNARGIIIFANEDDIRRVLEATRQANLTGHFLWVGSDSWGSKISPILNLEEEAVGAITILPKRASIDGFDQYFMTRSLENNRRNIWFAEFWEENFNCKLTSSGGQSDDSTRKCTGEERIGQDSTYEQEGKVQFVIDAVYAIAHALHSMHQALCPGHTGLCPAMEPTDGRTLLHYIRAVRFNGSAGTPVMFNENGDAPGRYDIFQYQATNGSASSGGYQAVGQWAEALRLDMEALQWSGDPHEVPPSQCSLPCGPGERKKMVKGVPCCWHCEACDGYRFQVDEFTCEACPGHMRPTPNHTGCRPTPVVRLTWSSPWAALPLLLAVLGIMATTTIIATFMRHNDTPIVRASGRELSYVLLTGIFLIYAITFLMVAEPCAAVCASRRLLLGLGTTLSYSALLTKTNRIYRIFEQGKRSVTPPPFISPTSQLVITFGLTSLQVVGVIAWLGAQPPHSVIDYEEQRTVDPEQARGVLKCDMSDLSLIGCLGYSLLLMVTCTVYAIKARGVPETFNEAKPIGFTMYTTCIIWLAFVPIFFGTAQSAEKIYIQTTTLTVSLSLSASVSLGMLYVPKTYVILFHPEQNVQKRKRSLKKTSTMAAPPKSENSEDAK
B2: mGluR6 (metabotropic glutamate receptor 6): N561Q (protein)
parent chain: B1 parent chain
B3: mGluR6 (metabotropic glutamate receptor 6): 4Q (protein)
parent chain: B1 parent chain

Columns and labels:
[1] = Non-permeabilised mAb-1438 immunolabelling, HEK, untagged; settings: glycan lost; control: wild type
[2] = EGFP in TRPM1-positive OPL puncta, electroporated mouse retina; settings: glycan lost; control: wild type mGluR6-EGFP
[3] = Non-permeabilised mAb-1438 immunolabelling, HEK, mGluR6-EGFP; settings: glycan lost; control: wild type mGluR6-EGFP
[4] = Total EGFP fluorescence, HEK; settings: glycan lost; control: wild type mGluR6-EGFP
[5] = Permeabilised mAb-1438 immunolabelling, HEK, untagged; settings: glycan lost; control: wild type

Protein	localisation_or_trafficking [1]	localisation_or_trafficking [2]	localisation_or_trafficking [3]	expression_or_secretion [4]	expression_or_secretion [5]
B1	decreases	no change	decreases	–	–
B2	decreases	no change	decreases	decreases	–
B3	abolishes	abolishes	–	decreases	decreases
